The text below walks through data of the nanobody polyreactivity screen of Harvey et al. (2022).

The data set is described as follows: yeast display, Sf9 membrane polyspecificity reagent, FACS + sequencing; frameworks hold sequencing errors. An outline of the steps:
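Sorting gates, low and high (top ~1%), were placed on anti-HA fluorescence to track expression and on streptavidin fluorescence to track reagent binding. A clone's polyreactivity label is taken from the gate it came out of. The reagent was 10% biotinylated, detergent-solubilized Sf9 membrane, applied for 1 hour at 4 °C to galactose-induced yeast display cells.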
“QVQLVESGGGLVQAGGSLRLSCAASGIFYVYAMGWYRQAPGKERELVAAISSDGSTYYADSVKGRFTISRDNAKNTVYLQMNSLKPEDTAVYYCAAVWYWTQDYDYWGQGTQVTVSS”: the “polyreactivity (PSR sort gate)” value is on record as “low polyreactivity”.
Then “QVQLVESGGGLVQAGGSLRLSCAASGIIFAFYAMGWYRQAPGKERELVATISKSGGRTYYADSVKGRFTISRDNAKNTVYLQMNSLKPEDTAVYYCAARIQYAFGADYYWGQGTQVTVSS”, with “low polyreactivity”; and “QVQLVESGGGLVQAGGSLRLSCAASGIIFAHNAMGWYRQAPGKERELVAAISKRGGSTYYADSVKGRFTISLDNAKNTVYLQMNSLKPEDTAVYYCAAASFTWVSRGYDYWGQGTQVTVAS”, with “high polyreactivity”; and “QVQLVESGGGLVQAGGSLRLSCAASGIIFALYAMGWYRQAPGKERELVATITYSGGSTYYADSVKGRFTISRDNAKNTVYLQMNSLKPEDTAVYYCAADYYILRWRQTNDYWGQGTQVTVSS”, with “low polyreactivity”.
Then “QVQLVESGGGLVQAGGSLRLSCAASGIIFARNGMGWYRPAPGKERELVAAISSGGRKYYADSVKGRFTISRDNAKNTVYLQMNSLKPEDTAVYYCNALGWYLRGDYWGQGTQVTVSS”, with “high polyreactivity”.
The entry for “QVQLVESGGGLVQAGGSLRLSCAASGIIFARNTMGWYRQAPGKERELVAAISTRGTTSYYADSVKGRFTISRDNAKYTVYLQMNSLKPEDTAVYYCAAVRVHTDRYNYWGQGTQVTVSS” is “high polyreactivity”.
Consider “QVQLVESGGGLVQAGGSLRLSCAASGIIFARYAMGWYRQAPGKERELVAAINWSGGDTYYADSVKGRFTISRDNAKNTVYLEMNSLIPEDTAVYYCSKVISYLVVLPRTERYEGDYWGQGTQVSVSS”, for which the “polyreactivity (PSR sort gate)” value is recorded as “low polyreactivity”.
As to “QVQLVESGGGLVQAGGSLRLSCAASGIIFASNAMGWYRQTPGKERELVAAISGSGGRTYYADSVKGRFTISRDNAKNTVYLQMNSLKPDDTAVYYGAAARANNYDYWGQGTQVTVSS”, the “polyreactivity (PSR sort gate)” value is on record as “high polyreactivity”.
For the sequence “QVQLVESGGGLVQAGGSLRLSCAASGIIFASNARGWYIQAPGKERELVASINRRGSSTYYADSVKGRFTISRDNAKNTVYLQMNSLKPEDTAVYYCAARAFNSGLGYTRYDYWGQGTQVTVSS”, the “polyreactivity (PSR sort gate)” value is listed as “high polyreactivity”.
Then “QVQLVESGGGLVQAGGSLRLSCAASGIIFASNGMGWYRQAPGKERELVAAISSGGSTNYADSVKGLFTISRDHAKNTVYLQMNSLKPEDTAVYYCAADRWDRDYDYWGQGTQVTVSS”, with “low polyreactivity”; and “QVQLVESGGGLVQAGGSLRLSCAASGIIFASYAMGWYRPAPGKERELVATISRTGGSTRYADSVKGRFTISRDNAKNTVYLQMNSLKPEDTAVYYCAARNPAYDRRYGYWGQGTQVTVSS”, with “high polyreactivity”; and “QVQLVESGGGLVQAGGSLRLSCAASGIIFATNSMGWYRQAPGKERELVAAITSDSTNYADSVKGRFTISRDNAKNTVYLQMNSLKAEDTAVYYCAADLITDYEESDYWGQGTQVTVSS”, with “low polyreactivity”.
Then “QVQLVESGGGLVQAGGSLRLSCAASGIIFAWYAMGWYRQAPGKERELVAAISYSGGTTYYADSVKGRFTISRDIAKNTVYLQMNSLKPEDTEVYYCAGRLHLFFSYDYWGQGTLVTVSS”, with “low polyreactivity”; and “QVQLVESGGGLVQAGGSLRLSCAASGIIFAWYAMGWYRQAPGKERELVAAITSRGGSRTFYADSVKGRFTISRDNAKNTVYLQMNSLKPEDTAVYYCAVVTRAHPEDYWGQGTQVTVSS”, with “high polyreactivity”; and “QVQLVESGGGLVQAGGSLRLSCAASGIIFAYNAMGWYRQAPGKERELVAAISSGGRTNYADSVKGRFTISRDNAKNTVYLQMNSLKPEDTAVYYCAARPRYYWLGLKIYGYDYWGHGTQVTVSS”, with “high polyreactivity”.
Then “QVQLVESGGGLVQAGGSLRLSCAASGIIFAYNAMGWYRQAPVKERELVAAISVIGGTTYYADSVKGRFTISRDNAKITVYLQMNSLKPEDTAVYYCAVDSVQYGGGYERLHDLYYWGQGTQVTVSS”, with “low polyreactivity”.
Take “QVQLVESGGGLVQAGGSLRLSCAASGIIFAYYAMGWYRQAPGKERELVAAIDYSGASTYYADSVKGRFTISRDNAKNTVYLQMNSLKPEDTAVYYCNADDFGYASYEYWGQGTQVTVSS”: the “polyreactivity (PSR sort gate)” value is reported as “low polyreactivity”.
The entry for “QVQLVESGGGLVQAGGSLRLSCAASGIIFAYYAMGWYRQAPGKERELVAAISDNGGRTFYADSVKGRFTISRDNAKNTVYLQMNSLKPEDTAVYYCAAVVYSEYYYWGQGTQVTVSS” is “low polyreactivity”.
On to “QVQLVESGGGLVQAGGSLRLSCAASGIIFAYYAMGWYRQAPGKERELVGTNYADSVKGRFTISRDNAKNTVFLQMNSLKPEDTAVYYCAVQGYGEYDYWGQGTQVTVSS”, for which the “polyreactivity (PSR sort gate)” value is “low polyreactivity”.
Consider “QVQLVESGGGLVQAGGSLRLSCAASGIIFDDNTMGWYRQAPGKERELVAAISSSGGSTYYADSVKGRFTISRDNAKNTVYLQMNSLKPEDTAVYYCAAAVYYTYPYIVYRNYPEFDYWGQGTQVTVSS”, for which the “polyreactivity (PSR sort gate)” value was “low polyreactivity”.
On to “QVQLVESGGGLVQAGGSLRLSCAASGIIFDDYAMGWYRQAPGKERELVAAINSNGGTTYYADSVKGRFTISRDNAKNTVYLHMNSLKPEDTAVYYCAKAYPGTYREYDYWGQGTQVTVSS”, for which the “polyreactivity (PSR sort gate)” value is “high polyreactivity”.
The entry for “QVQLVESGGGLVQAGGSLRLSCAASGIIFDFYAMGGYRQAPGKEREFVAAINSGSGSTYYADSVKGRFTISRDNAKNTVYLQMNSLKPVDTAVYYCAADGLSATLTWYSYDYWGQGTQVTVSS” is “low polyreactivity”; for “QVQLVESGGGLVQAGGSLRLSCAASGIIFDFYAMGWYRQAPGKERELVAAINSGSGSTYYADSVKGRFTISRDNAKNTVYLQMNSLKPEDTAVYYCAADGLSATLTWYSYDYWGQGTQVTVSS” it is “low polyreactivity”; for “QVQLVESGGGLVQAGGSLRLSCAASGIIFDGNSMGWYRQAPGKEREFVAANSRNGGSTSYADSVKGRFTISRHNAKNTVYLQMHSLKPEDTAVYYCAADVETFWGCRYEYWGQGTQVTVSS” it is “low polyreactivity”.
In the case of “QVQLVESGGGLVQAGGSLRLSCAASGIIFDGYAMGWYRQAPGKEREFVAAITSGGGSTSYADSVKGRFTISRDNAKNTVYLQMNSLKPEDTAVYYCAARSNRFYVRQRYAYWGQGTQLTVSS”, the “polyreactivity (PSR sort gate)” value is recorded as “high polyreactivity”.
Regarding “QVQLVESGGGLVQAGGSLRLSCAASGIIFDINAMGWYRQAPGKERELVAAITTSVDSTYYADSVKGRFTISRDNAKNTVYLQMNSLKPEDTAVYYCAVAFVQFTQYYYWGQGSQVTVSS”, the “polyreactivity (PSR sort gate)” value is recorded as “low polyreactivity”.
Then “QVQLVESGGGLVQAGGSLRLSCAASGIIFDRNTMGWYRQAPGKEREYVAAISRNGGSTSYADSVKGRFTISRDNAKNTVYLQMNSLKPEDTAVYDCAADVETFWGWRYEYWGQGTQVTVSS”, with “low polyreactivity”; and “QVQLVESGGGLVQAGGSLRLSCAASGIIFDRYAMGWYRQAPGKERELVAAISWSGGRTYYADSVKGRFTISRDNAKNTVYLQMNSLKPEDTAVYYCAAKPSVDLDYWGQGTQVTVSS”, with “high polyreactivity”.
Then “QVQLVESGGGLVQAGGSLRLSCAASGIIFDRYAMGWYRQAPGKERELVAAITRSGGRTYYADSVKGRFTISRDNAKNTVYLQMNSLKPEDTAVYYCNAYRSALYPPEYDYWGQGTQVTVSS”, with “high polyreactivity”; and “QVQLVESGGGLVQAGGSLRLSCAASGIIFDTNAIGWYSQAPGKERELVATITQRGGTTYYADSVKGRFTISRDNAKNTVYLQMNSLKPEDTAVYYCNAGPVRLPYDSWGQGSQVTVSS”, with “low polyreactivity”; and “QVQLVESGGGLVQAGGSLRLSCAASGIIFDTYVMGWYRQAPGKERELVAAITRSGGRTRYADSVKGRFTISRDNAKNTVYLQMNSLKPEDTAVYYCAARIPDRQDGYGYWGQGTQVTVSS”, with “high polyreactivity”.
The entry for “QVQLVESGGGLVQAGGSLRLSCAASGIIFDWYAMGWYRQAPGTERELVAAISDSGDTTYYADSVKGRFTISRDNAKNTVYLQMNSLNPEDTAVYYCAARWEYVGYRRRYYRFDYWGQGTQVTVSS” is “high polyreactivity”.
For the sequence “QVQLVESGGGLVQAGGSLRLSCAASGIIFEGNVMGWYRQAPGKERELVAAITSDTSTNYADSVKGRFTISRDNAKNTVYIQMNSLKPEDTAVYYCNAVIGTDYYYSGTAEFYYWGQGTQVTVSS”, the “polyreactivity (PSR sort gate)” value was “low polyreactivity”.
The entry for “QVQLVESGGGLVQAGGSLRLSCAASGIIFEGYAMGWYRQAPGKERELVAAISQSGGSTRYADSVKGRFTISRDNAKNTVYLQMNSLKPEDTAVYYCAKLSLSWDGYYQYDYWGQGTQVTVSS” is “low polyreactivity”.
The entry for “QVQLVESGGGLVQAGGSLRLSCAASGIIFESNVMGWYRQAPGKERELVAAISRSGSRTYYADSVKGRFTISRDNAKNTVYLQMNSLKPEDTAVYYCATDSHTADEYEHWGQGTQVTVSS” is “high polyreactivity”; for “QVQLVESGGGLVQAGGSLRLSCAASGIIFEYYDMGWYRQAPGKERELVAAIDSGGSTYYADSVKGRFTISRDNAKNTVYLQMNSLKPEDTAVYYCAAETVRYEWGESPAALFDYWGQGTQVTVSS” it is “low polyreactivity”; for “QVQLVESGGGLVQAGGSLRLSCAASGIIFFAYAMGWYRQAPGKERELVAAISSSGGRTYYSDSVKGRFTISRDNAKNTVYLQMNSMIPEDTAVYYCTARWHGSFDYWGQGTQVTVSS” it is “low polyreactivity”.
Then “QVQLVESGGGLVQAGGSLRLSCAASGIIFFDYAMGWYRQAPGKERELVAAITGSGGRTYYADSVKGRFTISRDNAKNTVYLQMNSLKPEDTAVYYCAAARYYYGGDYWGQGTQVTVST”, with “high polyreactivity”.
In the case of “QVQLVESGGGLVQAGGSLRLSCAASGIIFFEYVMGWYRQAPGQERELVAAINRSGGRTYYADSVKGRFTISRDNAKNTVYLQMNSLKPEDTAVYYCAAEHYTGSGGYDYWGHGTQVTVSS”, the “polyreactivity (PSR sort gate)” value is given as “high polyreactivity”.
In the case of “QVQLVESGGGLVQAGGSLRLSCAASGIIFFGYAMGWYRQAPGKERELVADITNGGRTYYADSVKGRFTISRDNAKNTVYLQMNSLKPEDTAVYYCAADAFWEVYYYNALEYDYWGQGTQVTVSS”, the “polyreactivity (PSR sort gate)” value is listed as “high polyreactivity”.
The entry for “QVQLVESGGGLVQAGGSLRLSCAASGIIFGAYAMGWYRQAPGKERELVAAITYSSGSTYYADSVKGRFTISRDNAKNTVYLQMNRLKPEDTAVYYCAKTNFSQSSRSNYDYWGQGTQVTVSS” is “low polyreactivity”.
